Data published in patent US20250186614A1, “COMPACT DRUG RESPONSIVE DOMAINS FOR REGULATION OF FUNCTION/ABUNDANCE AND DELIVERY OF POLYPEPTIDE PAYLOADS” (OBSIDIAN THERAPEUTICS, INC., priority 2022, published 2025).
Like-named read-outs stand apart in the source and are kept apart here. Values belong to the molecule of their own block, whether it stands above or below them.

Legend:
Type in all cases: cell-based
[1] = system: Jurkat cells; test: Sirolimus (rapamycin) dose response of FKBP13 constructs stably transduced into Jurkat cells, flow cytometry; conditions: for Fold Change: rapamycin (sirolimus), Jurkat cells stably transduced, Table 8; for EC90 / Rapamycin FC: rapamycin, Table 14; for Rapamycin FC: fold change; for difference between rapamycin and tacrolimus: ratio of EC50 and fold change, Table 9; for EC50 (tacrolimus)/ EC50 (rapamycin): ratio of Table 7 and Table 8 EC50 values; for EC50 (tacrolimus)/ EC50 (rapamycin) / Fold change (tacrolimus)/ Fold change (rapamycin): Jurkat cells; for Fold change (tacrolimus)/ Fold change (rapamycin): ratio of Table 7 and Table 8 fold changes
Procedure: Normalized EC50 values were calculated from the mCherry normalized GFP MFI values, which accounted for any differences in mCherry intensity between samples.

[2] = system: Jurkat cells; test: Tacrolimus dose response of FKBP13-AcGFP-mCherry constructs stably transduced into Jurkat cells, GFP MFI by flow cytometry; parameters: Basal: unit not given here; conditions: for EC90 / Tacrolimus FC: Table 14; for Fold Change: Jurkat cells stably transduced, Table 7; for Tacrolimus FC: fold change; for basal AcGFP expression: absence of tacrolimus
Method in brief: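 GFP geometric MFI was read by flow cytometry in mCherry+ cells and curve-fitted against tacrolimus dose. Cells were Jurkat E6-1, lentivirus-transduced with FKBP13-AcGFP-mCherry fusion constructs until 10-25% mCherry-positive on day 5 post-transduction.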

[3] = Example 4: dose response of FKBP constructs 160-255, Ec50, Ec90 and fold change (raw and normalized to mCherry); conditions: for FC (fold change): fold change during initial analysis
Procedure: Additional experiments were performed for constructs FKBP-160-292.

[4] = normalized, read-out: Rapamycin EC90 (Norm)
[5] = read-out: Tacrolimus EC90 (Norm), tacrolimus, normalized
[6] = read-out: Tacrolimus EC90, tacrolimus
[7] = FKBP constructs 160-255, not normalized, read-out: EC90
[8] = normalized to mCherry, read-out: EC90 (Norm)

EC90 ([1]; read-out: Rapamycin EC90): 1.52 µM
EC50 (tacrolimus)/ EC50 (rapamycin) [1]: 0.20
EC90 [2, 6]: 0.341 µM
B1: FKBP-153: FKBP13 DRD Q72R, S79W, Q84E, A117W, M54A; SEQ ID NO: 103 (protein)
chain: HCPIKSRKGDVLHAHYTGKLEDGTEFDSSLPRNQPFVFWLGTGEVIKGWDQGLLGMCEGEKRKLVIPSELGYGERGWPPKIPGGATLVFEVELLKIER
modifications: Description of sequence: FKBP13-AcGFP-mCherry Fusion; Construct Name: FKBP-153; FKBP13 DRD in Construct : FKBP13 (mutated to match FKBP12 active site Q72RS79W Q84E A117W) (DRD M54A)
Fold Change [1]: 4.8
Rapamycin FC [1]: 6.1
EC90 [1, 4]: 1.54 µM
difference between rapamycin and tacrolimus [1]: largest difference between rapamycin and tacrolimus
Fold change (tacrolimus)/ Fold change (rapamycin) [1]: 6.26
EC90 [2, 5]: 0.383 µM
Fold Change ([2]; tacrolimus): 30.07
Tacrolimus FC ([2]; tacrolimus): 39.7

B2: FKBP-251: combinatorial FKBP13 mutant construct of Table 10 (protein)
chain: HCPIKSRKGDVLHMHYTGKLEDGTEFDSSLPRNQPFVFSLGTGERIKGWDQGLLGMCEGEKRKLVIPSELGYGERGWPPKIPGGATLVFFVELLKIER
modifications: Description of sequence: Construct Name: FKBP-251; Mutation(s): Q72R Q84E A117W V85R DRD E130F
EC90 [3, 7]: 0.104 µM
FC (fold change) [3]: 97.5
EC90 [3, 8]: 0.113 µM
Basal ([2]; FIG. 40): 76
FC ([2]; FIG. 40): 100
Peak ([2]; FIG. 40): 7406
Basal ([2]; FIG. 46, BR1 (Biorep 1)): 64
FC ([2]; FIG. 46, BR1 (Biorep 1)): 97.61
At 10 uM ([2]; FIG. 46, BR1 (Biorep 1)): 6247
Basal ([2]; FIG. 46, BR2 (Biorep 2)): 46.1
FC ([2]; FIG. 46, BR2 (Biorep 2)): 76.79
At 10 uM ([2]; FIG. 46, BR2 (Biorep 2)): 3540
basal AcGFP expression [2]: lowest basal expression
FC ([2]; tacrolimus, FIG. 35): 92.03
Peak ([2]; tacrolimus, FIG. 35): 5078
FC ([2]; tacrolimus, FIG. 36): 92.03
Peak ([2]; tacrolimus, FIG. 36): 5078
FC ([2]; tacrolimus, FIG. 37): 92.03
Peak ([2]; tacrolimus, FIG. 37): 5078
FC ([2]; tacrolimus, FIG. 38): 92.03
Peak ([2]; tacrolimus, FIG. 38): 5078

B3: FKBP-201: FKBP13 DRD-AcGFP construct of Table 10 (protein)
chain: HCPIKSRKGDVLLMHYTGKLEDGTEFDSSLPRNQPFVFSLGTGERIKGWDQGLLGMCEGEKRKLVIPSELGYGERGWPPKIPGGATLVFEVELLKIER
modifications: Description of sequence: Construct Name: FKBP-201; Mutation(s): Q72R Q84E A117W V85R DRD H53L
EC90 [3, 7]: 0.144 µM
FC (fold change) [3]: 33.1
EC90 [3, 8]: 0.153 µM

B4: FKBP-200: FKBP13 DRD-AcGFP construct of Table 10 (protein)
chain: HCPIKSRKGDVLHMHYTGKLESGTEFDSSLPRNQPFVFSLGTGERIKGWDQGLLGMCEGEKRKLVIPSELGYGERGWPPKIPGGATLVFEVELLKIER
modifications: Description of sequence: Construct Name: FKBP-200; Mutation(s): Q72R Q84E A117W V85R DRD D62S
EC90 [3, 7]: 0.161 µM
FC (fold change) [3]: 33.9
EC90 [3, 8]: 0.15 µM

B5: FKBP-202 (protein)
chain: HCPIKSRKSDVLHAHYTGKLEDGTEFDSSLPRNQPFVFSLGTGERIKGWDQGLLGMCEGEKRKLVIPSELGYGERGWPPKIPGGATLVFEVELLKIER
modifications: Description of sequence: Construct Name: FKBP-202; Mutation(s): Q72R Q84E A117W V85R DRD M54A G49S
EC90 [3, 7]: 1.01 µM
FC (fold change) [3]: 46.2
EC90 [3, 8]: 1.06 µM

B6: FKBP-228: combinatorial FKBP13 mutant construct of Table 10 (protein)
chain: HCPIKSRKGDVLHMHYTGKLEDGTEFDSSLPRNQPFVFSLGTGERIKGWDQGLLGMCEGEKRKLVIPSELGYGERGWPPKIPGGATLVFEVELLKIRR
modifications: Description of sequence: Construct Name: FKBP-228; Mutation(s): Q72R Q84E A117W V85R DRD E137R
EC90 [3, 7]: 0.116 µM
FC (fold change) [3]: 55.1
EC90 [3, 8]: 0.124 µM
Basal ([2]; FIG. 41): 112
FC ([2]; FIG. 41): 85
Peak ([2]; FIG. 41): 8896
Basal ([2]; FIG. 42, BR1 (Biorep 1)): 103
FC ([2]; FIG. 42, BR1 (Biorep 1)): 55.15
At 10 uM ([2]; FIG. 42, BR1 (Biorep 1)): 5680
Basal ([2]; FIG. 42, BR2 (Biorep 2)): 99.6
FC ([2]; FIG. 42, BR2 (Biorep 2)): 60.71
At 10 uM ([2]; FIG. 42, BR2 (Biorep 2)): 6047
basal AcGFP expression [2]: lowest basal expression

B7: FKBP-215: combinatorial FKBP13 mutant construct of Table 10, carries M54A (protein)
chain: HCRIKSRKGDVLHAHYTGKLEDGTEFDSSLPRNQPFVFSLGTGGRIKGWDQGLLGMCEGEKRKLVIPSELGYGERGWPPKIPGGATLVFEVELLYIER
modifications: Description of sequence: Construct Name: FKBP-215; Mutation(s): Q72R Q84G A117W V85R DRD P43R M54A K135Y
EC90 [3, 7]: 0.389 µM
FC (fold change) [3]: 51.0
EC90 [3, 8]: 0.39 µM
Basal ([2]; FIG. 48, BR1 (Biorep 1)): 65
FC ([2]; FIG. 48, BR1 (Biorep 1)): 51.05
At 10 uM ([2]; FIG. 48, BR1 (Biorep 1)): 3318
Basal ([2]; FIG. 48, BR2 (Biorep 2)): 59.4
FC ([2]; FIG. 48, BR2 (Biorep 2)): 53.30
At 10 uM ([2]; FIG. 48, BR2 (Biorep 2)): 3166
basal AcGFP expression [2]: lowest basal AcGFP expression

B8: FKBP-197: FKBP13 DRD-AcGFP construct of Table 10 (protein)
chain: HCPIKSRKGDVLHMHYTGKLEDGTEFDSSLPRNQPFVFSLGTGERIKGWDQGLLGMCEGEKRKLVIPSELGYGERGWPPKIPGGATLVFRVELLKIER
modifications: Description of sequence: Construct Name: FKBP-197; Mutation(s): Q72R Q84E A117W V85R DRD E130R
EC90 [3, 7]: 1.09 µM
FC (fold change) [3]: 101.1
EC90 [3, 8]: 1.19 µM
Basal ([2]; FIG. 46, BR1 (Biorep 1)): 70.7
FC ([2]; FIG. 46, BR1 (Biorep 1)): 101.12
At 10 uM ([2]; FIG. 46, BR1 (Biorep 1)): 7149
Basal ([2]; FIG. 46, BR2 (Biorep 2)): 55.2
FC ([2]; FIG. 46, BR2 (Biorep 2)): 72.21
At 10 uM ([2]; FIG. 46, BR2 (Biorep 2)): 3986

EC90 ([1]; read-out: Rapamycin EC90): 1.15 µM
EC50 (tacrolimus)/ EC50 (rapamycin) [1]: 0.72
EC90 [2, 6]: 0.808 µM
B9: FKBP-155: FKBP13 DRD Q72R, S79W, Q84R, A117W, M54A; SEQ ID NO: 105 (protein)
chain: HCPIKSRKGDVLHAHYTGKLEDGTEFDSSLPRNQPFVFWLGTGRVIKGWDQGLLGMCEGEKRKLVIPSELGYGERGWPPKIPGGATLVFEVELLKIER
modifications: Description of sequence: FKBP13-AcGFP-mCherry Fusion; Construct Name: FKBP-155; FKBP13 DRD in Construct : FKBP13 (mutated to match FKBP12 active site Q72R S79W Q84R A117W) (DRD M54A)
Fold Change [1]: 5.6
Rapamycin FC [1]: 7.5
EC90 [1, 4]: 1.18 µM
difference between rapamycin and tacrolimus [1]: largest difference between rapamycin and tacrolimus
Fold change (tacrolimus)/ Fold change (rapamycin) [1]: 7.44
EC90 [2, 5]: 0.947 µM
Fold Change ([2]; tacrolimus): 41.68
Tacrolimus FC ([2]; tacrolimus): 61.3

B10: FKBP-195: combinatorial FKBP13 mutant construct of Table 10, carries K135Y (protein)
chain: HCPIKSRKGDVLHMHYTGKLEDGTEFDSSLPRNQPFVFSLGTGERIKGWDQGLLGMCEGEKRKLVIPSELGYGERGWPPKIPGGATLVFEVELLYIER
modifications: Description of sequence: Construct Name: FKBP-195; Mutation(s): Q72R Q84E A117W V85R DRD K135Y
EC90 [3, 7]: 0.165 µM
FC (fold change) [3]: 50.1
EC90 [3, 8]: 0.14 µM
Basal ([2]; FIG. 39): 68.4
FC ([2]; FIG. 39): 90
Peak ([2]; FIG. 39): 5808
Basal ([2]; FIG. 50): 75.5
FC ([2]; FIG. 50): 61.07
At 10 uM ([2]; FIG. 50): 4611
basal AcGFP expression [2]: lowest basal expression
FC ([2]; tacrolimus, FIG. 35): 89.61
Peak ([2]; tacrolimus, FIG. 35): 4362
FC ([2]; tacrolimus, FIG. 36): 89.61
Peak ([2]; tacrolimus, FIG. 36): 4362
FC ([2]; tacrolimus, FIG. 37): 89.61
Peak ([2]; tacrolimus, FIG. 37): 4362
FC ([2]; tacrolimus, FIG. 38): 89.61
Peak ([2]; tacrolimus, FIG. 38): 4362
FC ([2]; tacrolimus, FIGS. 29 and 30): 66
FC ([2]; tacrolimus, FIGS. 31 and 32): 66
FC ([2]; tacrolimus, FIGS. 33 and 34): 66
